Source: the supplement of paper PMC9112550, “Optimization of the antimicrobial peptide Bac7 by deep mutational scanning” (BMC Biology, 2022)
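Note: peptides expressed intracellularly from a pBAD plasmid library in pooled LB shake-flask culture, induced with 0.3% L-arabinose, DNA abundance read by NGS, three biological replicates, DESeq2 with apeglm shrinkage.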

The sequences below were run on Escherichia coli TOP10 (assay: shrunken log2 fold change of peptide-encoding DNA abundance (4.5 h post-induction vs induction); higher = less antimicrobial activity (less host growth inhibition)). Conditions: time post-induction: 4.5 h; library: site-saturation at positions 5, 18, 19, 20.
RRIRMRPPRLPRPRPRPIFNPRP was tested, and the “shrunken log2 fold change” value was -0.257. RRIRMRPPRLPRPRPRPIGKPRP was tested, and the “shrunken log2 fold change” value was 0.208. RRIRMRPPRLPRPRPRPIIHPRP was tested, and the “shrunken log2 fold change” value was -0.136. In the case of RRIRMRPPRLPRPRPRPILWPRP, the “shrunken log2 fold change” value was 0.00288. For RRIRMRPPRLPRPRPRPIMDPRP, the “shrunken log2 fold change” value was -0.133. With RRIRMRPPRLPRPRPRPIMMPRP the “shrunken log2 fold change” value was -0.00663. RRIRMRPPRLPRPRPRPINQPRP was tested, and the “shrunken log2 fold change” value was 0.257. In the case of RRIRMRPPRLPRPRPRPIPTPRP, the “shrunken log2 fold change” value was 0.0467. With RRIRMRPPRLPRPRPRPIPWPRP the “shrunken log2 fold change” value was -0.033. With RRIRMRPPRLPRPRPRPIPYPRP the “shrunken log2 fold change” value was 0.013. With RRIRMRPPRLPRPRPRPIQFPRP the “shrunken log2 fold change” value was -0.318. RRIRMRPPRLPRPRPRPIQQPRP was tested, and the “shrunken log2 fold change” value was -0.0206. RRIRMRPPRLPRPRPRPIRKPRP was tested, and the “shrunken log2 fold change” value was 0.553. For RRIRMRPPRLPRPRPRPIRMPRP, the “shrunken log2 fold change” value was 0.213. For RRIRMRPPRLPRPRPRPISNPRP, the “shrunken log2 fold change” value was -0.0517. With RRIRMRPPRLPRPRPRPITFPRP the “shrunken log2 fold change” value was 0.0589. In the case of RRIRMRPPRLPRPRPRPITPPRP, the “shrunken log2 fold change” value was 0.0378. RRIRMRPPRLPRPRPRPIVNPRP was tested, and the “shrunken log2 fold change” value was -0.0202. For RRIRMRPPRLPRPRPRPIWPPRP, the “shrunken log2 fold change” value was 0.769. RRIRMRPPRLPRPRPRPIWYPRP was tested, and the “shrunken log2 fold change” value was -0.158. In the case of RRIRMRPPRLPRPRPRPKAQPRP, the “shrunken log2 fold change” value was 1.72. For RRIRMRPPRLPRPRPRPKCIPRP, the “shrunken log2 fold change” value was -0.113. With RRIRMRPPRLPRPRPRPKDVPRP the “shrunken log2 fold change” value was -0.000921. In the case of RRIRMRPPRLPRPRPRPKFNPRP, the “shrunken log2 fold change” value was -0.111. In the case of RRIRMRPPRLPRPRPRPKGKPRP, the “shrunken log2 fold change” value was 0.288. With RRIRMRPPRLPRPRPRPKGNPRP the “shrunken log2 fold change” value was 0.0272. For RRIRMRPPRLPRPRPRPKHYPRP, the “shrunken log2 fold change” value was -0.0523. For RRIRMRPPRLPRPRPRPKIHPRP, the “shrunken log2 fold change” value was -0.0387. For RRIRMRPPRLPRPRPRPKNRPRP, the “shrunken log2 fold change” value was 0.375. In the case of RRIRMRPPRLPRPRPRPKPDPRP, the “shrunken log2 fold change” value was 1.13. RRIRMRPPRLPRPRPRPKPFPRP was tested, and the “shrunken log2 fold change” value was 0.236. In the case of RRIRMRPPRLPRPRPRPKQIPRP, the “shrunken log2 fold change” value was 0.371. With RRIRMRPPRLPRPRPRPKREPRP the “shrunken log2 fold change” value was 0.055. With RRIRMRPPRLPRPRPRPKRWPRP the “shrunken log2 fold change” value was 1.51. In the case of RRIRMRPPRLPRPRPRPKSQPRP, the “shrunken log2 fold change” value was 2.06. With RRIRMRPPRLPRPRPRPKSTPRP the “shrunken log2 fold change” value was 1.44. RRIRMRPPRLPRPRPRPKTFPRP was tested, and the “shrunken log2 fold change” value was 0.0371. With RRIRMRPPRLPRPRPRPKVAPRP the “shrunken log2 fold change” value was -0.0166. For RRIRMRPPRLPRPRPRPKVDPRP, the “shrunken log2 fold change” value was -0.0311. With RRIRMRPPRLPRPRPRPKVNPRP the “shrunken log2 fold change” value was 0.31. With RRIRMRPPRLPRPRPRPKWCPRP the “shrunken log2 fold change” value was 0.0391. With RRIRMRPPRLPRPRPRPKYFPRP the “shrunken log2 fold change” value was -0.186. In the case of RRIRMRPPRLPRPRPRPLAWPRP, the “shrunken log2 fold change” value was 0.219. For RRIRMRPPRLPRPRPRPLCIPRP, the “shrunken log2 fold change” value was 0.21. With RRIRMRPPRLPRPRPRPLDQPRP the “shrunken log2 fold change” value was 1.12. With RRIRMRPPRLPRPRPRPLERPRP the “shrunken log2 fold change” value was 0.00972. With RRIRMRPPRLPRPRPRPLESPRP the “shrunken log2 fold change” value was 2.66. In the case of RRIRMRPPRLPRPRPRPLFMPRP, the “shrunken log2 fold change” value was 0.0387. For RRIRMRPPRLPRPRPRPLGRPRP, the “shrunken log2 fold change” value was 0.723. In the case of RRIRMRPPRLPRPRPRPLHCPRP, the “shrunken log2 fold change” value was 0.254. With RRIRMRPPRLPRPRPRPLIVPRP the “shrunken log2 fold change” value was 1.71. RRIRMRPPRLPRPRPRPLKYPRP was tested, and the “shrunken log2 fold change” value was -0.0456. RRIRMRPPRLPRPRPRPLNWPRP was tested, and the “shrunken log2 fold change” value was 0.225. In the case of RRIRMRPPRLPRPRPRPLRIPRP, the “shrunken log2 fold change” value was 1.06. For RRIRMRPPRLPRPRPRPLSGPRP, the “shrunken log2 fold change” value was 0.815. In the case of RRIRMRPPRLPRPRPRPLTCPRP, the “shrunken log2 fold change” value was -0.0821. RRIRMRPPRLPRPRPRPLWFPRP was tested, and the “shrunken log2 fold change” value was -0.147. In the case of RRIRMRPPRLPRPRPRPLWIPRP, the “shrunken log2 fold change” value was -0.00647. RRIRMRPPRLPRPRPRPLWVPRP was tested, and the “shrunken log2 fold change” value was 0.0224. With RRIRMRPPRLPRPRPRPLYKPRP the “shrunken log2 fold change” value was -0.134. For RRIRMRPPRLPRPRPRPLYVPRP, the “shrunken log2 fold change” value was -0.111. With RRIRMRPPRLPRPRPRPMAAPRP the “shrunken log2 fold change” value was 0.117. With RRIRMRPPRLPRPRPRPMDTPRP the “shrunken log2 fold change” value was -0.00187. For RRIRMRPPRLPRPRPRPMFEPRP, the “shrunken log2 fold change” value was 0.155. For RRIRMRPPRLPRPRPRPMFPPRP, the “shrunken log2 fold change” value was 0.164. In the case of RRIRMRPPRLPRPRPRPMGFPRP, the “shrunken log2 fold change” value was -0.0135. For RRIRMRPPRLPRPRPRPMIEPRP, the “shrunken log2 fold change” value was 0.17. RRIRMRPPRLPRPRPRPMIHPRP was tested, and the “shrunken log2 fold change” value was -0.106. RRIRMRPPRLPRPRPRPMKRPRP was tested, and the “shrunken log2 fold change” value was 0.573. For RRIRMRPPRLPRPRPRPMKVPRP, the “shrunken log2 fold change” value was 0.0398. With RRIRMRPPRLPRPRPRPMMFPRP the “shrunken log2 fold change” value was 0.251. With RRIRMRPPRLPRPRPRPMRVPRP the “shrunken log2 fold change” value was 0.035. For RRIRMRPPRLPRPRPRPMSVPRP, the “shrunken log2 fold change” value was -0.00306. RRIRMRPPRLPRPRPRPMVRPRP was tested, and the “shrunken log2 fold change” value was 0.0591. For RRIRMRPPRLPRPRPRPMWCPRP, the “shrunken log2 fold change” value was 0.283.
